For the data set, the target named is T1, STAT-1alpha wild type (transfected in U3A cells) (Homo sapiens) (UniProt P42224).
T1 sequence: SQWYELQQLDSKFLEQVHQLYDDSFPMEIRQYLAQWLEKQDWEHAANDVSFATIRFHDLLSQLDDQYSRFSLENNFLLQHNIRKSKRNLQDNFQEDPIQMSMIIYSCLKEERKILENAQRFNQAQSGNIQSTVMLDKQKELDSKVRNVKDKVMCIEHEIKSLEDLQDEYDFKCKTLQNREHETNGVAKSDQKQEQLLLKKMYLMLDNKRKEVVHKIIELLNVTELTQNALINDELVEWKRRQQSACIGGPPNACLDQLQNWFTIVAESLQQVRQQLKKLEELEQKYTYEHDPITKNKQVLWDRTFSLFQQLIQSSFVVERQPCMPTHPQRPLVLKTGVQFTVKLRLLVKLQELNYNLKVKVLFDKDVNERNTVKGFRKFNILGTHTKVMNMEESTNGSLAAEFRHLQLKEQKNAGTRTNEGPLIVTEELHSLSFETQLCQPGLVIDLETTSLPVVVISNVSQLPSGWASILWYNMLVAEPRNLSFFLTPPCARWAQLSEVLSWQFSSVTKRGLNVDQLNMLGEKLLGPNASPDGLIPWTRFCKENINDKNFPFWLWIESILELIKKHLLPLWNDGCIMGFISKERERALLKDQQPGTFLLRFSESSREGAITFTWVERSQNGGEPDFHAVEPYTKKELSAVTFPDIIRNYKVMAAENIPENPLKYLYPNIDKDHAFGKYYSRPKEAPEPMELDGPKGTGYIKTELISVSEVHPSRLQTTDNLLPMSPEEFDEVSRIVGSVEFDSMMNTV
Description: cell_activity. To be noted: luciferase reporter in U3A cells, IFN-gamma 5 ng/ml 10 h. In general terms: Reporter assays use an easily measured gene product as a stand-in for the process of interest.

Sequence “GATCAGTTCCCGTCAATCNATGATCCAGTTCCCGTCAATGATCCCCGGGATC (double strand) [tandem weak c-fos STAT-1 sites reporter enhancer]” returned an activity (fold induction) of 2.
